For orientation: EC50 means the concentration needed to bring the measured effect to its halfway point. Lower therefore signals higher potency in that assay.

The source of these data is patent publication US20260022169A1 (published 2026).

The target of the experiment is T1, CLDN18.2 (UniProt P56856 1-261).
T1 chain: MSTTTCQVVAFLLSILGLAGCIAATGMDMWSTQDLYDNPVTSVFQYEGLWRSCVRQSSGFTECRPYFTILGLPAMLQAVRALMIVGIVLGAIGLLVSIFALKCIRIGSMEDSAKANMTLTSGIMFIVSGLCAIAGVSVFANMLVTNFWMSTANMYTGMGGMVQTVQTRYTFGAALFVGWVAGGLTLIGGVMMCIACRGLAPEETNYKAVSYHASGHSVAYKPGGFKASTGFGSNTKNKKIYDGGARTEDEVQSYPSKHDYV
The experiment in a line: FACS binding, MC38/CD47/CLDN18.2 cells.

B1: hu28 (antibody, V domains shown)
VH: QVQLVQSGAEVKKPGASVKVSCKASGYTFTNWVHWVRQAPGQGLEWMGEINPTNARSNYNEKFKKRVTMTRDTSTSTVYMELSSLRSEDTAVYYCARIYYGNSFAHWGQGTLVTVSS
VL: DIVMTQSPDSLAVSLGERATINCKSSQSLLNAGNQKNYLTWYQQKPGQPPKLLIYWSSTRESGVPDRFSGSGSGTDFTLTISSLQAEDVAVYHCQNNYYYPLTFGGGTKLEIKR
B1: the EC50 amounted to 3.24 nM.
